From patent US20140113854A1 (NATIONAL RESEARCH COUNCIL OF CANADA, published 2014)
Positions of bridges follow the written chain, without caps; N, C: chain ends. Non-standard residues stand in square brackets, D forms with d. Chains are numbered I, II in the order given. No end group written: not given here. *: point of attachment. Benzenesulfonyl(4-tBu) = CC(C)(C)c1ccc(S(=O)(=O)*)cc1; dPip = O=C(O)[C@H]1CCCCN1

Tests used:
Human α-thrombin [1] = target: T1, Human α-thrombin (human, UniProt P00734 328-363; P00734 364-622); test: thrombin inhibition, 37 °C
Human α-thrombin [2] = target: T1, Human α-thrombin; test: enzyme kinetics, thrombin-catalysed chromogenic substrate hydrolysis, 37 °C
Human α-thrombin [3] = target: T1, Human α-thrombin; test: enzyme kinetics, thrombin-catalysed chromogenic substrate hydrolysis, 37 °C, 50 s window
Human α-thrombin [4] = target: T1, Human α-thrombin; test: inhibition of thrombin-catalysed hydrolysis of chromogenic substrate S-2366, 25 °C
From the text: (§1) Human α-thrombin was purchased from Haemotologic Technologies, Inc., VT, USA.

Human α-thrombin [5] = target: T1, Human α-thrombin; test: cell-based or functional assay
Human α-thrombin [6] = target: T1, Human α-thrombin; test: inhibition of thrombin-catalysed hydrolysis of chromogenic substrate S-2366, 37 °C
From the text: as §1

Human α-thrombin [7] = target: T1, Human α-thrombin; test: cell-based or functional assay; remark: listed apart in the source
Human α-thrombin [8] = target: T1, Human α-thrombin; test: cell-based or functional assay; remark: listed apart in the source
Human α-thrombin [9] = target: T1, Human α-thrombin; test: cell-based or functional assay; remark: listed apart in the source
Human α-thrombin [10] = target: T1, Human α-thrombin; test: derived from Ki and punfold (KD = Ki x popen), S-2366 kinetics, 37 °C
From the text: as §1

Human α-thrombin [11] = target: T1, Human α-thrombin; test: inhibition of human α-thrombin
rat-tail collagen type I [12] = target: T2, rat-tail collagen type I (rat, UniProt P02454 152-1207; P02466 86-1125); test: NMR in collagen hydrogel
T2 construct: Used in solution and as randomly deposited or partially aligned hydrogel; Human collagen gels were also prepared; also called collagen hydrogel; rat collagen
T2 sequence (P02454 152-1207 limits assumed, chain 1 of 2): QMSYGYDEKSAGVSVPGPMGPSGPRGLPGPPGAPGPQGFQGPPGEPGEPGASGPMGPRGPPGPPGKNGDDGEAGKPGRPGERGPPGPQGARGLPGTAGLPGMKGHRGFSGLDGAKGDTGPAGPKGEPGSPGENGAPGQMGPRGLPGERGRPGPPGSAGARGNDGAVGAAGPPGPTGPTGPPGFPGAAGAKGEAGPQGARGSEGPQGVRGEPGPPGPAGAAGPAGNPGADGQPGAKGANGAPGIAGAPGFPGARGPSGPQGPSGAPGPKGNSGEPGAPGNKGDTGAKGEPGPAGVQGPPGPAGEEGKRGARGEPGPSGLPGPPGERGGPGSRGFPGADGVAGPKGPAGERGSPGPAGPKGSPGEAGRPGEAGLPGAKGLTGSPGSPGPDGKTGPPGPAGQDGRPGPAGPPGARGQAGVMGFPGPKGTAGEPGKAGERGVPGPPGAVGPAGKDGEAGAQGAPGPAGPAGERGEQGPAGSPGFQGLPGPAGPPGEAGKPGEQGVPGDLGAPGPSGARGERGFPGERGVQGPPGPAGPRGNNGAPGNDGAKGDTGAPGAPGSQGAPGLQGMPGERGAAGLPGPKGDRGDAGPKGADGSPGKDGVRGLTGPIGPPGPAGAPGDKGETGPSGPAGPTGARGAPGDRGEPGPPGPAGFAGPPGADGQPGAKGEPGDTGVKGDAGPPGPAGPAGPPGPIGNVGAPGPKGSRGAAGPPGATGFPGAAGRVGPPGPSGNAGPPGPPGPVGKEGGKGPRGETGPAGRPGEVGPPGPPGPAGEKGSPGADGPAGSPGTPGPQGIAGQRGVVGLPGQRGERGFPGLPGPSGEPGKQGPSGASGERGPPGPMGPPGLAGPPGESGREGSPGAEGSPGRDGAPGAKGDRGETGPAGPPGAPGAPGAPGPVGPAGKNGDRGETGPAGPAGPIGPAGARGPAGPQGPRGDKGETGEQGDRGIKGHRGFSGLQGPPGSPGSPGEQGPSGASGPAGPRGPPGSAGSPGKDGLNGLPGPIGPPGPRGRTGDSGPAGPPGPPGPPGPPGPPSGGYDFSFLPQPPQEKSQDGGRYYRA
T2 sequence (P02466 86-1125 limits assumed, chain 2 of 2): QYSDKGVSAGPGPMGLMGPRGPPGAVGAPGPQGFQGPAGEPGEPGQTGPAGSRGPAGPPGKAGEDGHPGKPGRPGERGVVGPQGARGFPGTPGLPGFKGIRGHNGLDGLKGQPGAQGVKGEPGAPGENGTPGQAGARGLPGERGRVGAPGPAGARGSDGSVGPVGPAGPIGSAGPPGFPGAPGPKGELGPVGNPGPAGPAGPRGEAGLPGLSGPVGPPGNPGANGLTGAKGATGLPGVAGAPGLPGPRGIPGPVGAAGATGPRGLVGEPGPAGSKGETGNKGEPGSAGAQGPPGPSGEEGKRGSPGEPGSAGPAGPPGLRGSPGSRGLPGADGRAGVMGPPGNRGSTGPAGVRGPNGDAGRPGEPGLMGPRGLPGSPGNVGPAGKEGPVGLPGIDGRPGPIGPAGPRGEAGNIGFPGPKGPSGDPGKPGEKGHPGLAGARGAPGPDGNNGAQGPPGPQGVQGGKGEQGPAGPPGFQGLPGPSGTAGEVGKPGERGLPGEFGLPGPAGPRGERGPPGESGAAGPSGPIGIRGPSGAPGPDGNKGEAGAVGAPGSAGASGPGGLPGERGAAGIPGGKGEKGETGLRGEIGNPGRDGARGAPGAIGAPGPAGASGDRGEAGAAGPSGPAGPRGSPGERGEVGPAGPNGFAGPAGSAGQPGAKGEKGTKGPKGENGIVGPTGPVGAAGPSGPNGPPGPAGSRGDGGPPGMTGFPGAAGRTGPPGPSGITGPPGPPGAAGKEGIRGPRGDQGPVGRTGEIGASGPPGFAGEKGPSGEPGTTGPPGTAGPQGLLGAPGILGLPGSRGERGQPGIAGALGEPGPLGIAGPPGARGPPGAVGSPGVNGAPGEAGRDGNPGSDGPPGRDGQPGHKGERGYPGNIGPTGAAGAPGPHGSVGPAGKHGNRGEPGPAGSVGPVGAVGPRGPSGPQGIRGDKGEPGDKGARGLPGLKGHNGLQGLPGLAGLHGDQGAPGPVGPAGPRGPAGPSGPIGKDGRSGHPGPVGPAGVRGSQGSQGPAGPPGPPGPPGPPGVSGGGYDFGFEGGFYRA

Human α-thrombin [13] = target: T1, Human α-thrombin; test: inhibition of thrombin-catalysed hydrolysis of chromogenic substrate S-2366, 37 °C; remark: listed apart in the source
rat-tail collagen type I [14] = target: T2, rat-tail collagen type I; test: deuterium NMR of collagen gel formed with the peptide; called a semi-quantitative indication of peptide-collagen binding
rat-tail collagen type I [15] = target: T2, rat-tail collagen type I; test: proton NMR and deuterium coupling constant of collagen gel
Human α-thrombin [16] = target: T1, Human α-thrombin; test: inhibition of thrombin by monovalent active-site moiety; conditions not given at the table

## [dF]PRPRFTDGEWTWDDATKTWTWTEGDFEEIPEEYL (ends and bridges not checked, also called P4229) [BRI-T208]
Human α-thrombin [1]
  fold reduction of Ki as compared to BRI-T207: ~13 fold
  fold reduction of Ki as compared to MH2-wZIP4: ~5 fold
Human α-thrombin [2]
  Ki: 28 nM

## [dF]PRIRFTDGEWTWDDATKTWTWTEGDFEEIPEEYL (ends and bridges not checked, also called P4238) [BRI-T218]
Human α-thrombin [3]
  Ki: 14 nM

B1: MH2 (peptide)
peptide: IRFTDGEGTPNPESHNNGDFEEIPEEYLQ
modifications: ends and bridges not checked; also: uniformly 15N-labelled
notes: Linker HV2(42-53); Uniformly 15N-labelled for the NMR work; also called mini-hirudin 2
Human α-thrombin [4]
  Ki: 34 nM
Human α-thrombin [5]
  IC50, T = 37° C.: 14 nM
Human α-thrombin [6]
  Ki: 67 nM
Human α-thrombin [7]
  IC50 (assay not given): ~14 nM

## IRFTDGEWTWDDATKTWTWTEGDFEEIPEEYLQ (ends and bridges not checked; also: 15N-labelled) [MH2-wZIP4]
Human α-thrombin [8]
  KI (Thrombin Inhibition); IC50 by the clotting assay, 37 °C: 154 nM
Human α-thrombin [9]
  IC50, fibrinogen clotting assay, 25 °C: 245 nM
  IC50, fibrinogen clotting assay, 37 °C: 154 nM
  IC50, fibrinogen clotting assay, 42 °C: 148 nM
Human α-thrombin [5]
  IC50, T = 37° C.: 154 nM

B2: BRI-T109 (peptide)
peptide: PRFTDGEWTWDDATKTWTWTEGDFEEIPEEYLQ
notes: MH2-wZIP4 with the first residue Ile replaced by Pro; also called P4230
Human α-thrombin [2]
  Ki: 1450 nM

## IRFTDGEWTYDDATKTFTVTEGDFEEIPEEYLQ (ends and bridges not checked) [MH2-gb1]
Human α-thrombin [9]
  IC50, fibrinogen clotting assay, 25 °C: 49 nM
  IC50, fibrinogen clotting assay, 37 °C: 86 nM

## IRFTDGEWTYDDATKTFTWTEGDFEEIPEEYLQ [MH2-wZIP5]
Human α-thrombin [8]
  KI (Thrombin Inhibition); IC50 by the clotting assay, 37 °C: 107 nM
Human α-thrombin [9]
  IC50, fibrinogen clotting assay, 25 °C: 80 nM
  IC50, fibrinogen clotting assay, 37 °C: 107 nM

## IRFTDGEWTWDDATKTWTVTEGDFEEIPEEYLQ [MH2-wZIP6]
Human α-thrombin [8]
  KI (Thrombin Inhibition); IC50 by the clotting assay, 37 °C: 53 nM
Human α-thrombin [9]
  IC50, fibrinogen clotting assay, 25 °C: 47 nM
  IC50, fibrinogen clotting assay, 37 °C: 53 nM

B3: BTI2 (peptide)
peptide: XRXGEWTYDDATKTFTVTEGDFEEIPEEYLQ
modifications: N-terminal Bbs (4-tert-butyl-benzenesulfonyl) on Arg; D-pipecolic acid (D-Pip) after Arg
notes: gb1 linker
Human α-thrombin [10]
  Kd: 2.8 nM

B4: BTI4 (peptide)
peptide: XRXGEWTYDDATKTFTWTEGDFEEIPEEYLQ
modifications: N-terminal Bbs (4-tert-butyl-benzenesulfonyl) on Arg; D-pipecolic acid (D-Pip) after Arg
Human α-thrombin [10]
  Kd: 2.8 nM

B5: TWE1 (peptide)
peptide 1: {Benzenesulfonyl(4-tBu)}-R[dPip]GC
peptide 2: CGSGSGSGSGSGSGSGSGDFEEIPEEYLQ
modifications: disulfide I:4-II:1; ends not checked; also: uniformly 15N-labelled
notes: Analog of BTI1 in which the two parts are joined by a disulfide bond
Human α-thrombin [11]
  Ki: 2.2 nM

## VRFTDGEGTPKPQSHDNGDFEEIPEEYLQ (ends and bridges not checked) [MH1]
Human α-thrombin [7]
  IC50 (assay not given): ~33 nM

## IRFTDGSWTWEGNKWTWKGDFEEIPEEYLQ (also called P4269) [MH2-wZIP1]
Human α-thrombin [2]
  Ki: 18.4 nM

## IRFTDGSGSGSGSGSGSGDFEEIPEEYLQ (ends and bridges not checked, (GS)6 linker) [MH2-allGS]
Human α-thrombin [4]
  Ki: 30 nM
Human α-thrombin [2]
  Ki: 58 nM
Human α-thrombin [6]
  Ki: 50 nM

## IRFTDGEGTGSGSGSGSGDFEEIPEEYLQ (ends and bridges not checked, GEGT(GS)4 linker; comparative control) [MH2-GS]
rat-tail collagen type I [12]
  binding result: no binding
Human α-thrombin [13]
  Ki: 60 nM
Human α-thrombin [4]
  Ki: 27 nM
Human α-thrombin [6]
  Ki: 59 nM

## FQPRPRFTDGEWTWDDATKTWTWTEGDFEEIPEEYL (also called P4223) [BRI-T207]
Human α-thrombin [2]
  Ki: 404 nM

## WDPRIRFTDGEWTWDDATKTWTWTEGDFEEIPEEYL [BRI-T219]
Human α-thrombin [2]
  Ki: 164 nM

## GEWTYDDATKTFTWTE-NH2 (Isolated linker peptide) [trpzip5-NH2]
rat-tail collagen type I [14]
  reduction of the deuterium coupling constant (collagen fibril alignment): < 0.5 Hz

## GEWTYDDATKTFTVTE-NH2 (Isolated linker peptide) [gb1-NH2]
rat-tail collagen type I [15]
  binding result: no binding

## IRFTDGGSWTWEGNKWTWKGGDFEEIPEEYLQ (also called P4268) [MH2-wZIP1-2G]
Human α-thrombin [2]
  Ki: 16.6 nM

## IRFTDG (Monovalent active-site moiety)
Human α-thrombin [16]
  Ki: 7000 nM

## GEWTWDDATKTWTWTE-NH2 (Isolated linker peptide) [trpzip4-NH2]
rat-tail collagen type I [14]
  reduction of the deuterium coupling constant (collagen fibril alignment): > 1 Hz

## GEWTWDDATKTWTVTE-NH2 (Isolated linker peptide) [trpzip6-NH2]
rat-tail collagen type I [14]
  reduction of the deuterium coupling constant (collagen fibril alignment): < 0.5 Hz
